The values below come from patent US20250263504A1 (Takeda / Millennium, published 2025).

The labels stand for the following.
T1: Factor XIIa (FXIIa) (UniProt P00748 20-372; P00748 373-615, limits assumed)
T1 construct: the description speaks of human FXIIa; also called active Factor XII
T1 sequence (looked up) 1: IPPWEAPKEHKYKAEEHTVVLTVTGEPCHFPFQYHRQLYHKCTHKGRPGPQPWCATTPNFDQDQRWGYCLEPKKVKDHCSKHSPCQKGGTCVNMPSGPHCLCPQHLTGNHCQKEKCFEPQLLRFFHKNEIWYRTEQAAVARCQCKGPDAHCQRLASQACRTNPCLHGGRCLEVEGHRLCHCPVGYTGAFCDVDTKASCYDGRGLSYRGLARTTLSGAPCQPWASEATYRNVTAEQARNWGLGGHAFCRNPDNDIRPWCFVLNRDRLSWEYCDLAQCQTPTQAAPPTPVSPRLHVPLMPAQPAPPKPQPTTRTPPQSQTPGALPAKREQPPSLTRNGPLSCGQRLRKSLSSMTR
T1 sequence (looked up) 2: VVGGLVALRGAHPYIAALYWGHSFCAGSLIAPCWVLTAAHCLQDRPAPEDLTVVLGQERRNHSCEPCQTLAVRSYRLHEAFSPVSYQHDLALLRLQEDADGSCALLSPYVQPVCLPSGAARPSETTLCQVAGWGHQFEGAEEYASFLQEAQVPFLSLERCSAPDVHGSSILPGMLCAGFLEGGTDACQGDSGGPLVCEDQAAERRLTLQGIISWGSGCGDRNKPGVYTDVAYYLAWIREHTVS

B1: 620I-X0177-A01 (bispecific antibody, human IgG1, kappa)
heavy: not shown
light: DIQMTQSPSTLSASVGDRVTITCRASQSISSWLAWYQQKPGKAPKLLIYKASTLESGVPSRFSGSGSGTEFTLTISSLQPDDFATYYCQQYNTYWTFGQGTKVEIKRTVAAPSVFIFPPSDEQLKSGTASVVCLLNNFYPREAKVQWKVDNALQSGNSQESVTEQDSKDSTYSLSSTLTLSKADYEKHKVYACEVTHQGLSSPVTKSFNRGEC
notes: 620I-X0136-D12 with germlined, gene-optimized scFv and VH44-VL100 disulfide; also called 620I-X0173-A11; 620I-X0136-D12 with H44/L100 engineered disulfide bond
B2: 620I-X0179-E05 (bispecific antibody, human IgG1, kappa)
heavy: not shown
light: B1 light
notes: 620I-X0177-C01 with IgG C-terminal Lys deleted; also called 620I-R0052-E01
B3: 620I-X0180-A05 (bispecific antibody, human IgG1, kappa)
heavy: not shown
light: B1 light
notes: 620I-X0177-G01 with IgG C-terminal Lys deleted; also called 620I-R0052-A03; 620I-X180-A05
B4: 620I-X0179-C01 (bispecific antibody, human IgG1, kappa)
heavy: not shown
light: B1 light
notes: 620I-X0177-A01 with IgG C-terminal Lys changed to Gly; also called 620I-R0052-C01; 620I-X179-C01
B5: 620I-X0180-G03 (bispecific antibody, human IgG1, kappa)
heavy: not shown
light: B1 light
notes: 620I-X0177-E01 with IgG C-terminal Lys changed to Gly; also called 620I-R0052-G03; 620I-X180-G03
B6: 620I-X0179-G05 (bispecific antibody, human IgG1, kappa)
heavy: not shown
light: B1 light
notes: 620I-X0177-C01 with IgG C-terminal Lys changed to Gly; also called 620I-R0052-G01; 620I-X179-G05
B7: 620I-X0180-E07 (bispecific antibody, human IgG1, kappa)
heavy: not shown
light: B1 light
notes: 620I-X0177-E01 with IgG C-terminal Lys deleted; also called 620I-R0052-E03; 620I-X180-E07
B8: 620I-X0179-A09 (bispecific antibody, human IgG1, kappa)
heavy: not shown
light: B1 light
notes: 620I-X0177-A01 with IgG C-terminal Lys deleted; also called 620I-R0052-A01; 620I-X179-A09
B9: 620I-X0180-C11 (bispecific antibody, human IgG1, kappa)
heavy: not shown
light: B1 light
notes: 620I-X0177-G01 with IgG C-terminal Lys changed to Gly; also called 620I-R0052-C03; 620I-X180-C11
B10: DX-2930 (antibody, human IgG1, kappa, V domains shown)
VH: EVQLLESGGGLVQPGGSLRLSCAASGFTFSHYIMMWVRQAPGKGLEWVSGIYSSGGITVYADSVKGRFTISRDNSKNTLYLQMNSLRAEDTAVYYCAYRRIGVPRRDEFDIWGQGTMVTVSS
VL: DIQMTQSPSTLSASVGDRVTITCRASQSISSWLAWYQQKPGKAPKLLIYKASTLESGVPSRFSGSGSGTEFTLTISSLQPDDFATYYCQQYNTYWTFGQGTKVEIKR
notes: Anti-pKal IgG1; also called H03
B11: X0122-A01 (bispecific antibody)
heavy: not shown
light: B1 light
notes: also called X122-A01
B12: X0122-C01 (bispecific antibody)
heavy: not shown
light: B1 light
notes: also called X122-C01
B13: X0121-E01 (bispecific antibody)
heavy: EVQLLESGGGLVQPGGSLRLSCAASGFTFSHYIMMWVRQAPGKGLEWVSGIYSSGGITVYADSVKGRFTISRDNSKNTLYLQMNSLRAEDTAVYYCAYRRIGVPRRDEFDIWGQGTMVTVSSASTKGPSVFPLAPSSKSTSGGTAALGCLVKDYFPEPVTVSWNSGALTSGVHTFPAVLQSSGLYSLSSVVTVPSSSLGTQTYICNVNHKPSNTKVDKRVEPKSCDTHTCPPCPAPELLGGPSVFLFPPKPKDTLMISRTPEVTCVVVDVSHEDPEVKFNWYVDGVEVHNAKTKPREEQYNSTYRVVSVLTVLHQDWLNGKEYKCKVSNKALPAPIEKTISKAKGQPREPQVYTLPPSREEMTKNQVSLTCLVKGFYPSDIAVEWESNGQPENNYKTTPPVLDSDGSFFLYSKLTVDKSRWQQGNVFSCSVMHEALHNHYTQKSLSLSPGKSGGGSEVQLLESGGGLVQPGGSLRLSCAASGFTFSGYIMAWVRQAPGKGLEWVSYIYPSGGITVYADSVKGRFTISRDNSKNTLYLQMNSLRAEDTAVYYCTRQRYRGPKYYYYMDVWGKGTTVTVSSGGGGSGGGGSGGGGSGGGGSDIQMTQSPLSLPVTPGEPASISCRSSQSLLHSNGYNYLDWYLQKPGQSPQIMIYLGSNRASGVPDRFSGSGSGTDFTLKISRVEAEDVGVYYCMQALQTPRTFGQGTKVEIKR
light: B1 light
notes: also called X121-E01
B14: X0120-A01 (bispecific antibody)
heavy: not shown
light: B1 light
notes: also called X120-A01
B15: 620I-X0142-B11 (bispecific antibody, human IgG1, kappa)
heavy: not shown
light: B1 light
notes: also called 620I-X142-B11
B16: 620I-X0138-B01 (bispecific antibody, human IgG1, kappa)
heavy: not shown
light: B1 light
notes: also called 620I-X138-B01
B17: 620I-X0142-A05 (bispecific antibody)
heavy: not shown
light: B1 light
notes: also called 620I-X142-A05
B18: 620I-X0142-B02 (bispecific antibody)
heavy: not shown
light: B1 light
notes: also called 620I-X142-B02
B19: 620I-X0142-A02 (bispecific antibody)
heavy: not shown
light: B1 light
notes: also called 620I-X142-A02
B20: 620I-X0142-E02 (bispecific antibody)
heavy: not shown
light: B1 light
notes: also called 620I-X142-E02
B21: 620I-X0139-E05 (bispecific antibody)
heavy: not shown
light: B1 light
notes: also called 620I-X139-E05
B22: 620I-X0142-A04 (bispecific antibody)
heavy: not shown
light: B1 light
notes: also called 620I-X142-A04
B23: 620I-X0139-D12 (bispecific antibody)
heavy: not shown
light: B1 light
notes: also called 620I-X139-D12
B24: 620I-X0142-B07 (bispecific antibody)
heavy: not shown
light: B1 light
notes: also called 620I-X142-B07
B25: 620I-X0142-D04 (bispecific antibody)
heavy: not shown
light: B1 light
notes: also called 620I-X142-D04
B26: 620I-X0139-G12 (bispecific antibody)
heavy: not shown
light: B1 light
notes: also called 620I-X139-G12

Where “and” joins values, the source holds several entries; their conditions need not be identical. Equal entries are not always repeated.

One test has as its target T1, Factor XIIa (FXIIa). The test is described as follows: enzyme inhibition assay, apparent Ki.
For the molecule B1, the Ki came out at 0.073 nM.

The next test deals with T2, plasma kallikrein (pKal) (UniProt P03952 20-390; P03952 391-638, limits assumed).
T2 construct: the description speaks of human pKal; also called active pKal
T2 sequence (P03952 20-390 limits assumed, form in doubt, chain 1 of 2): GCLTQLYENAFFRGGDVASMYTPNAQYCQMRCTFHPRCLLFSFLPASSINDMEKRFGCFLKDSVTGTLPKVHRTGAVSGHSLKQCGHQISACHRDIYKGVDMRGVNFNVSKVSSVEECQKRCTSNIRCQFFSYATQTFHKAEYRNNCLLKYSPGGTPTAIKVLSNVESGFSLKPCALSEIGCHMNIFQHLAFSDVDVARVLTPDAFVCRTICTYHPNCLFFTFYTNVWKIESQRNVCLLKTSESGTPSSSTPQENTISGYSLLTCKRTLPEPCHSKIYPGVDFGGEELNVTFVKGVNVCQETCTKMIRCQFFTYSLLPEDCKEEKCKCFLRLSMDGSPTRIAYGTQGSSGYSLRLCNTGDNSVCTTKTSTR
T2 sequence (P03952 391-638 limits assumed, form in doubt, chain 2 of 2): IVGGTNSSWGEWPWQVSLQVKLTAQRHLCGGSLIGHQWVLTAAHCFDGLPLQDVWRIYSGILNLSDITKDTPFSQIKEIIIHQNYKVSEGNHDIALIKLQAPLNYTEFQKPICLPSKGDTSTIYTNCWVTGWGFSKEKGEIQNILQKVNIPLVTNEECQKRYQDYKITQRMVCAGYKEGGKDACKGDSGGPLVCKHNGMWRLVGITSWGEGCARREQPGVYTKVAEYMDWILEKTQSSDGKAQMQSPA
The test is described as follows: enzyme inhibition assay, apparent Ki.
In the case of B1, the Ki is 0.389 nM.

The target in a further test is T2, plasma kallikrein (pKal). The experiment in a line: pKal enzyme inhibition, Ki,app.
Molecule B2 came in with a Ki of 0.203 nM.
The same measure, in the same setting: under B3 stands 0.254 nM.
B4 displayed a Ki of 0.243 nM.
Same read-out and setting: as for B5, the figure is 0.208 nM; as for B6, 0.226 nM.
In the case of B7, the Ki is 0.243 nM.
Take B8: the Ki worked out at 0.225 nM.
On the same count and under the same terms, as for B9, the figure is 0.232 nM.

For the next test, the target named is T2, plasma kallikrein (pKal). The test is described as follows: enzyme inhibition of human pKal: rate (F/s) against antibody concentration (0 to 10 nM), fit to the tight-binding equation printed in the panel; K is Ki,app. Columns are coefficient, std. error, t, P. The unit is taken from the concentration axis '[nM]' [CONT'D) B. (left panel].
Take B10: the Ki amounted to 0.202 nM.

A further test concerns the target T2, plasma kallikrein (pKal). The test is described as follows: pKal enzyme inhibition, Ki,app, control.
Take B10: the Ki is 0.127 nM and 0.131 nM and 0.151 nM.

Another test addresses T1, Factor XIIa (FXIIa). The experiment in a line: enzyme inhibition: rate (F/s) against antibody concentration (0 to about 9000 pM), fit to the tight-binding inhibitor equation; K is Ki,app. FXIIa as the enzyme follows from the text; it is not printed in the panel [right panel].
B1 came in with a Ki of 0.0726 nM.

For a further test, the target named is T1, Factor XIIa (FXIIa). The experiment in a line: enzyme inhibition, peptide substrate, tight-binding fit, Ki,app. How it is done:
(§1) Varying concentrations of the bispecific antibodies were incubated with individual FXIIa and pKal samples, and the ability of these proteases to cleave a peptide substrate was monitored over time by measuring changes in the fluorescence of a chemical moiety covalently attached to the peptide substrate. Slopes of this kinetic data are equivalent to enzymatic proteolytic rates, which are then plotted against the concentration of the inhibitor. The resulting plots are then fit to a tight binding inhibitor equation (Equation 1) by nonlinear regression to obtain apparent inhibition constants (Kᵢ^app).
B11 displayed a Ki of 6.05 nM.
Molecule B12 returned a Ki of 5.69 nM.
The same measure, in the same setting: under B13 stands 0.611 nM; under B14, 0.0515 nM.

The target of a further test is T2, plasma kallikrein (pKal). Described as above. How it is done: as §1
For B11, the Ki stood at 0.169 nM.
Still for that read-out and setting: under B12 stands 0.161 nM; under B13, 0.159 nM; under B14, 0.138 nM.

The next test addresses T1, Factor XIIa (FXIIa). The experiment in a line: enzyme inhibition, corrected Ki,app.
B15 registered a Ki of 7.72 nM.
B16 had a Ki of 6.63 nM.
The same measure, in the same setting: as for B17, the figure is 2.14 nM; as for B18, 0.955 nM; as for B19, 0.063 nM.
The same measure, in the same setting: under B20 stands 0.186 nM; under B21, 0.172 nM.
In turn, B22 gave a Ki of 1.23 nM.
Same read-out and setting: under B23 stands 0.383 nM; under B24, 0.775 nM; under B25, 0.414 nM.
On the same count and under the same terms, under B26 stands 0.252 nM.

Another test has as its target T2, plasma kallikrein (pKal). The test is described as follows: enzyme inhibition, corrected Ki,app.
B15 displayed a Ki of 0.622 nM.
For B16, the Ki is 0.169 nM.
Consider B17, for which the Ki was 0.16 nM.
The molecule B18 came in with a Ki of 0.156 nM.
Same read-out and setting: as for B19, the figure is 0.152 nM.
In turn, B20 yielded a Ki of 0.162 nM.
The same measure, in the same setting: under B21 stands 0.196 nM.
In turn, B22 yielded a Ki of 0.162 nM.
With B23, the Ki worked out at 0.428 nM.
Still for that read-out and setting: under B24 stands 0.224 nM; under B25, 0.17 nM; under B26, 0.276 nM.

Another test has as its target T2, plasma kallikrein (pKal). The test is described as follows: enzyme inhibition, corrected Ki,app, control plate 2.
With B10, the Ki was determined as 0.138 nM.

The target in another test is T2, plasma kallikrein (pKal). The test is described as follows: enzyme inhibition of human pKal: rate (F/s) against antibody concentration (0 to 10 nM), fit to the tight-binding equation printed in the panel; K is Ki,app. Columns are coefficient, std. error, t, P. The unit is taken from the concentration axis '[nM]' [CONT'D) B. (right panel].
With B1, the Ki amounted to 0.39 nM.

The next test deals with T2, plasma kallikrein (pKal). The test is described as follows: enzyme inhibition, corrected Ki,app, control plate 1.
B10: the Ki turned out to be 0.16 nM.

For another test, the target named is T1, Factor XIIa (FXIIa). The experiment in a line: FXIIa enzyme inhibition, Ki,app.
With B2, the Ki was found to be 0.099 nM.
Still for that read-out and setting: under B3 stands 0.116 nM; under B4, 0.108 nM; under B5, 0.071 nM.
For B6, the Ki came to 0.052 nM.
B7: the Ki turned out to be 0.092 nM.
On the same count and under the same terms, as for B8, the figure is 0.09 nM.
The same measure, in the same setting: as for B9, the figure is 0.14 nM.
